Literature values in PMC12732943.

Target: Fibrin (Homo sapiens) (UniProt P02671)

In the case of GPVI (monomeric) (from UniProt Q9HCN6), the Kd is listed as 302 nM.
